Biological target: T1, human CD25 expressed on cells (Karpas 299, SU-DHL-1, SR-786, in vitro differentiated Treg cells, PBMC) (human, UniProt P01589 22-272)
T1 construct: also called CD25 expressing cells
T1 sequence: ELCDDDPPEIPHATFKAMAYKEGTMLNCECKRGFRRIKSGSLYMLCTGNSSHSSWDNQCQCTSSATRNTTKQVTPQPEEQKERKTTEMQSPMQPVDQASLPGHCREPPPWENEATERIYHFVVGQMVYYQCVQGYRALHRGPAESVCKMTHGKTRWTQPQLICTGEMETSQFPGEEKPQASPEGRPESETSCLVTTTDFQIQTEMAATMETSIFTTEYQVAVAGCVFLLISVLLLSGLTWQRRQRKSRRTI
Assay: flow cytometry titration on Karpas 299 cells, AF647 secondary antibody
Experimental: Binding to CD25 expressing Karpas 299 cells and in vitro differentiated Tregs was examined by staining test articles (anti-CD25 primary antibodies) with 30 mg/ml antibodies followed by semi-log dilution series (7-point) for 30 minutes on ice. […] All samples were stained in duplicates. Live cells were gated using FSC vs SSC parameters by flow cytometry during sample acquisition. Mean fluorescence intensity (MFI) of stained cells were plotted on an XY chart, graphing MFI against the log of the concentration, and the data fit to a non-linear regression curve from which the EC50 is calculated.

B1: Antibody 11 (antibody, V domains shown)
VH: QVQLQESGPGLVKPSETLSLTCTVSGFSLTSYGIQWIRQPPGKGLEWIGVIWAGGSTNYNSALMSRVTISKDNSKNQFSLKLSSVTAADTAVYYCARAYGYDGSWLAYWGQGTLVTVSS
VL: QIVLTQSPATLSLSPGERATLSCRASSSVSYMHWYQQKPGQAPRPLIFATSNLASGIPARFSGSGSGTDYTLTISSLEPEDFAVYYCQQWSSNPPTFGGGTKLEIK
notes: also called Ab11
EC50 (read off the curve): ~0.3 µg/mL

— patent US20200010554A1 (TUSK THERAPEUTICS, published 2020)
